The supplement of paper PMC9170038

System: MS2 coat protein
Test: apparent KD of MS2 coat protein; designed switch direction (-1 OFF switch, 1 ON switch): 1; higher = weaker reporter binding
Summary of the method: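 For each design, the apparent KD is the median over clusters of curves fitted to normalised cluster fluorescence. Clusters held RNA switches with common flanks, transcribed on Illumina chips by stalled E. coli RNA polymerase. These were titrated with SNAP-549-labelled MS2 coat protein, doubling from 0.7 or 1.5 nM to 3 µM, without input, with 200 uM small-molecule ligand, or with an oligonucleotide input.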

[1] = Eterna round: R95, input ligand: FMN 200 uM
[2] = Eterna round: R95, input ligand: microRNA oligo, concentration not stated
[3] = Eterna round: R95, input ligand: none
[4] = input ligand: microRNA oligo, concentration not stated

## GGUCCAGCCUGAGCUGGACAAAGGCAUGUACAUGAGGAUCACCCAUGUCAUGUACAAGCUUUUUGCUCGUCUUAAAA [JL mod - D87 - 3] (puzzle: Sensor for hsa-mir-208a)
[1]
  apparent KD of MS2 coat protein: 168 nM
[2]
  apparent KD of MS2 coat protein: 13.8 nM
[3]
  apparent KD of MS2 coat protein: 220 nM

## GGUCGGAACCACAUGAGGAUCACCCAUGUUCCGGAAACGGUACAGGAUAUCUGUCCGAAAAGGUCAGAGAAGGGUGAACCGACC [Fiskers NG3ss - 77] (Eterna round: R96, puzzle: Same State NG 3)
Input ligand: FMN 200 uM
  apparent KD of MS2 coat protein: 1090 nM
[4]
  apparent KD of MS2 coat protein: 349 nM
Input ligand: none
  apparent KD of MS2 coat protein: 312 nM

## GGUCGGACCUACAUGAGGAUCACCCAUGUUCCGGAAACGGCACAGGAUAUCUGUCCGAAAAGGUCAGAGAAGGGUGAACCGACC [Fiskers NG3ss - 75] (Eterna round: R96, puzzle: Same State NG 3)
Input ligand: FMN 200 uM
  apparent KD of MS2 coat protein: 1000 nM
[4]
  apparent KD of MS2 coat protein: 508 nM
Input ligand: none
  apparent KD of MS2 coat protein: 1880 nM

## GGUCGGUCCAACAUGAGGAUCACCCAUGUACCGGAAACGGCAUAGGAUAUCUGUCCGAAAAGGUCAGAGAAGGGUGAACCGACC [Fiskers NG3ss - 72] (Eterna round: R96, puzzle: Same State NG 3)
Input ligand: FMN 200 uM
  apparent KD of MS2 coat protein: 421 nM
[4]
  apparent KD of MS2 coat protein: 586 nM
Input ligand: none
  apparent KD of MS2 coat protein: 229 nM

## GGUGCAAUAAACGCCUACAUGAGGAUCACCCAUGUAUGUAGGCAGGAUAUCGUUUGCAAAGCAAACGAGAAGGGCUGUAGUACC [Mat - Same State NG 3 - JL Mod - D41] (Eterna round: R96, puzzle: Same State NG 3)
Input ligand: FMN 200 uM
  apparent KD of MS2 coat protein: 51.5 nM
[4]
  apparent KD of MS2 coat protein: 82.3 nM
Input ligand: none
  apparent KD of MS2 coat protein: 142 nM

## GGUGCCAAUAAAGCCUACAUGAGGAUCACCCAUGUAUGUAGGCAGGAUAUCGUAUGCAAAGCAUACGAGAAGGGCCGAGGCACC [Mat - Same State NG 3 - JL Mod - D56] (Eterna round: R96, puzzle: Same State NG 3)
Input ligand: FMN 200 uM
  apparent KD of MS2 coat protein: 18.7 nM
[4]
  apparent KD of MS2 coat protein: 29.1 nM
Input ligand: none
  apparent KD of MS2 coat protein: 37 nM

## GGUGCGAAUAAAGCCUACAUGAGGAUCACCCAUGUAUGUAGGCAGGAUAUCGUUUGCAAAGCAAACGAGAAGGGCUGACGCACC [Mat - Same State NG 3 - JL Mod - D49] (Eterna round: R96, puzzle: Same State NG 3)
Input ligand: FMN 200 uM
  apparent KD of MS2 coat protein: 29.3 nM
[4]
  apparent KD of MS2 coat protein: 45.7 nM
Input ligand: none
  apparent KD of MS2 coat protein: 62.4 nM

## GUAAAACAUGAGGAUCACCCAUGUAAUAAUAUGGGAGGAUAUCAGAAUGUAUGUAUGUAAUGAGAAGGCCUAAAUU [Mat - Same State 1 - Mod of Eli - D75] (puzzle: Same State 1)
[1]
  apparent KD of MS2 coat protein: 73.4 nM
[2]
  apparent KD of MS2 coat protein: 610 nM
[3]
  apparent KD of MS2 coat protein: 695 nM

## GUAAAACAUGAGGAUCACCCAUGUCAAUGUAGUCGAGGAUAUGGGUAGCUAUGAGGCGUACUAGAAGGCGAAAAGU [Mat - Same State 1 - Mod of JL - D18] (puzzle: Same State 1)
[1]
  apparent KD of MS2 coat protein: 91.8 nM
[2]
  apparent KD of MS2 coat protein: 85.5 nM
[3]
  apparent KD of MS2 coat protein: 248 nM

## GUAACAUGACGAGGAUAUGGAACAUGAGGAUCACCCAUGUAUGUUCCAUAACGCGAAUAAAGAAUCCAGAAGGCGUCGUGAAAU [Mat - Same State NG 2 - JL mod - D33] (Eterna round: R96, puzzle: Same State NG 2)
Input ligand: FMN 200 uM
  apparent KD of MS2 coat protein: 22.1 nM
[4]
  apparent KD of MS2 coat protein: 118 nM
Input ligand: none
  apparent KD of MS2 coat protein: 120 nM

## GUAAGGCAAGCUUUUUUCUCGUAGUGUAAACAUGAGGAUCACCCAUGUGCUCGCCCUGGACCUUUGGAUCGCAGAAA [Tiesmain] (puzzle: Sensor for hsa-mir-208a)
[1]
  apparent KD of MS2 coat protein: 36.4 nM
[2]
  apparent KD of MS2 coat protein: 22.2 nM
[3]
  apparent KD of MS2 coat protein: 46.3 nM

## GUAAUCGUUAUAGGAUAUCAUGAGGAUUACCCAUGAGAAGGGUGAUCUCGAUCCAUAUUCAGAAAAUGAAUGUGGAUAGAUUGC [Omei NG1 A v2] (Eterna round: R96, puzzle: Same State NG 1)
Input ligand: FMN 200 uM
  apparent KD of MS2 coat protein: 1010 nM
[4]
  apparent KD of MS2 coat protein: 292 nM
Input ligand: none
  apparent KD of MS2 coat protein: 1150 nM

## GUACUACAUGAGGAUCACCCAUGUACGCCAGUACGAGGAUAUGCAUGGGCGCUAGCUGGUGCAGAAGGCGUAGUGC [Pin2Pin #6] (puzzle: Same State 1)
[1]
  apparent KD of MS2 coat protein: 21 nM
[2]
  apparent KD of MS2 coat protein: 24 nM
[3]
  apparent KD of MS2 coat protein: 45.5 nM

## GUAGAUAUAAAGGAGGAUAUUCAAUGAGAGACAUGAGGAUCACCCAUGUGAGAGUGAGAUGAUAGGAAGAAGGCUUAGAGAGAUG [Altered State 2-6 - Jieux - Same State 2] (puzzle: Same State 2)
[1]
  apparent KD of MS2 coat protein: 64.1 nM
[2]
  apparent KD of MS2 coat protein: 54.9 nM
[3]
  apparent KD of MS2 coat protein: 72 nM

## GUAGAUAUAGAGGAGGAUAUUCAAUGAGGAACAUGAGGAUCACCCAUGUAAGAGAGAGAUGAUGAGAAGAAGGCUUAGAGGGAUG [Altered State 2-3 - Jieux - Same State 2] (puzzle: Same State 2)
[1]
  apparent KD of MS2 coat protein: 46.5 nM
[2]
  apparent KD of MS2 coat protein: 84.6 nM
[3]
  apparent KD of MS2 coat protein: 62 nM
